In patent US20250333467A1 (TECTONIC OPERATING, published 2025):
Like-named read-outs stand apart in the source and are kept apart here.

How the values were obtained:
Assay in all cases: cell-based or functional assay
human RXFP1 [1] = target: T1, human RXFP1 (human, UniProt Q9HBX9 1-757)
T1 sequence (looked up): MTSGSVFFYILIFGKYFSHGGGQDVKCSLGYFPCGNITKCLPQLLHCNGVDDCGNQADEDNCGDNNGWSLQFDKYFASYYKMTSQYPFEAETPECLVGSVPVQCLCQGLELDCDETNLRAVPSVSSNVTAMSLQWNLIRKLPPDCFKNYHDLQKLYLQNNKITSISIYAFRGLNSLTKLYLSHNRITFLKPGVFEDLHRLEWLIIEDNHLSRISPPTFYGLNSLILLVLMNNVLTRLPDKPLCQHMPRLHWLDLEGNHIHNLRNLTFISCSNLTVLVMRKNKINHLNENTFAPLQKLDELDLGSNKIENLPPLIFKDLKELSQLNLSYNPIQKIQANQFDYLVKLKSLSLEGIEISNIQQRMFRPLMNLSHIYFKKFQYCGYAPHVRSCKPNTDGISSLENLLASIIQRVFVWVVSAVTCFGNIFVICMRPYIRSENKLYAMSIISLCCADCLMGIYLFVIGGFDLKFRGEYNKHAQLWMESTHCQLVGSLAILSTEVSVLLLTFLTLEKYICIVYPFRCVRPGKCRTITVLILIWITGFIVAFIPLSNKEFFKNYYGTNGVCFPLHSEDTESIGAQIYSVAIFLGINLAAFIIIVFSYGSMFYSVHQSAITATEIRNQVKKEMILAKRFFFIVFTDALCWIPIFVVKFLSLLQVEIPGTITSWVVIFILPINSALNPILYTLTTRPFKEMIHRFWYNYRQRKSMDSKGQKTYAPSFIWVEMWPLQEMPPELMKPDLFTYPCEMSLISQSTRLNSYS

human RXFP1 [2] = target: T1, human RXFP1; remark: listed apart in the source
human RXFP1 [3] = target: T1, human RXFP1; remark: listed apart in the source

B1: SEQ ID NO: 133 (Fc fusion)
chain: DKTHTCPPCPAPEAAGGPSVFLFPPKPKDTLMISRTPEVTCVVVDVSHEDPEVKFNWYVDGVEVHNAKTKPREEQYNSTYRVVSVLTVLHQDWLNGKEYKCKVSNKALAAPIEKTISKAKGQPREPQVYTLPPSRDELTKNQVSLTCLVKGFYPSDIAVEWESNGQPENNYKTTPPVLDSDGSFFLYSKLTVDKSRWQQGNVFSCSVLHEALHSHYTQKSLSLSPGKGGSDSYQEEVIKLCGRELVRAQIAICGKSTASDAAGAEAEAGARQLYSALANKCCYVGCTKQSLAQFC
- Potency (cAMP, transient hRXFP1 in HEK293) (human RXFP1 [1]): 30.6 nM

B2: SEQ ID NO: 122 (Fc fusion)
chain: DKTHTCPPCPAPEAAGGPSVFLFPPKPKDTLMISRTPEVTCVVVDVSHEDPEVKFNWYVDGVEVHNAKTKPREEQYNSTYRVVSVLTVLHQDWLNGKEYKCKVSNKALAAPIEKTISKAKGQPREPQVYTLPPSRDELTKNQVSLTCLVKGFYPSDIAVEWESNGQPENNYKTTPPVLDSDGSFFLYSKLTVDKSRWQQGNVFSCSVLHEALHSHYTQKSLSLSPGKGGSDSIQEEVIKLCGRELVRAQIAICGKSTASDAAGAEAEAGARQLYSALANKCCHVGCTKRSLAQFC
- Potency (cAMP, transient hRXFP1 in HEK293) (human RXFP1 [1]): 6.5 nM

B3: SEQ ID NO: 121 (Fc fusion)
chain: DKTHTCPPCPAPEAAGGPSVFLFPPKPKDTLMISRTPEVTCVVVDVSHEDPEVKFNWYVDGVEVHNAKTKPREEQYNSTYRVVSVLTVLHQDWLNGKEYKCKVSNKALAAPIEKTISKAKGQPREPQVYTLPPSRDELTKNQVSLTCLVKGFYPSDIAVEWESNGQPENNYKTTPPVLDSDGSFFLYSKLTVDKSRWQQGNVFSCSVLHEALHSHYTQKSLSLSPGKGGSDSLQEEVIKLCGRELVRAQIAICGKSTASDAAGAEAEAGARQLYSALANKCCHVGCTKRSLAQFC
- Potency (cAMP, transient hRXFP1 in HEK293) (human RXFP1 [1]): 5.5 nM

B4: SEQ ID NO: 125 (Fc fusion)
chain: DKTHTCPPCPAPEAAGGPSVFLFPPKPKDTLMISRTPEVTCVVVDVSHEDPEVKFNWYVDGVEVHNAKTKPREEQYNSTYRVVSVLTVLHQDWLNGKEYKCKVSNKALAAPIEKTISKAKGQPREPQVYTLPPSRDELTKNQVSLTCLVKGFYPSDIAVEWESNGQPENNYKTTPPVLDSDGSFFLYSKLTVDKSRWQQGNVFSCSVLHEALHSHYTQKSLSLSPGKGGSDSWQEEVIKLCGRELVRAQIAICGKSTASDAAGAEAEAGARQLYSALANKCCQVGCTKRSLAQFC
- Potency (cAMP, transient hRXFP1 in HEK293) (human RXFP1 [1]): 11.1 nM

B5: SEQ ID NO: 123 (Fc fusion)
chain: DKTHTCPPCPAPEAAGGPSVFLFPPKPKDTLMISRTPEVTCVVVDVSHEDPEVKFNWYVDGVEVHNAKTKPREEQYNSTYRVVSVLTVLHQDWLNGKEYKCKVSNKALAAPIEKTISKAKGQPREPQVYTLPPSRDELTKNQVSLTCLVKGFYPSDIAVEWESNGQPENNYKTTPPVLDSDGSFFLYSKLTVDKSRWQQGNVFSCSVLHEALHSHYTQKSLSLSPGKGGSDSWQEEVIKLCGRELVRAQIAICGKSTASDAAGAEAEAGARQLYSALANKCCYVGCTKRSLAQFC
- Potency (cAMP, transient hRXFP1 in HEK293) (human RXFP1 [1]): 11.7 nM

B6: SEQ ID NO: 137 (Fc fusion)
chain: DKTHTCPPCPAPEAAGGPSVFLFPPKPKDTLMISRTPEVTCVVVDVSHEDPEVKFNWYVDGVEVHNAKTKPREEQYNSTYRVVSVLTVLHQDWLNGKEYKCKVSNKALAAPIEKTISKAKGQPREPQVYTLPPSRDELTKNQVSLTCLVKGFYPSDIAVEWESNGQPENNYKTTPPVLDSDGSFFLYSKLTVDKSRWQQGNVFSCSVLHEALHSHYTQKSLSLSPGKGGSDSYQEEVIKLCGRELVRAQIAICGKSTGGEGSGGEGSGGGRQLYSALANKCCYVGCTKQSLAQFC
- Potency (cAMP, transient hRXFP1 in HEK293) (human RXFP1 [1]): 11.4 nM

B7: SEQ ID NO: 90 (Fc fusion)
chain: DKTHTCPPCPAPEAAGGPSVFLFPPKPKDTLMISRTPEVTCVVVDVSHEDPEVKFNWYVDGVEVHNAKTKPREEQYNSTYRVVSVLTVLHQDWLNGKEYKCKVSNKALAAPIEKTISKAKGQPREPQVYTLPPSRDELTKNQVSLTCLVKGFYPSDIAVEWESNGQPENNYKTTPPVLDSDGSFFLYSKLTVDKSRWQQGNVFSCSVLHEALHSHYTQKSLSLSPGKGGSDSWQEEVIKLCGRELVRAQIAICGKSTASDAAGAQAQAGARQLYSALANKCCHVGCTKRSLAQFC
- Potency (cAMP, transient hRXFP1 in HEK293) (human RXFP1 [2]): 0.6 nM
- THP1 (endogenous RXFP1) cAMP EC50 (human RXFP1 [3]): 4.4 nM
- Transient HEK293 hRXFP1 cAMP EC50 (human RXFP1 [3]): 0.6 nM

B8: SEQ ID NO: 119 (Fc fusion)
chain: DKTHTCPPCPAPEAAGGPSVFLFPPKPKDTLMISRTPEVTCVVVDVSHEDPEVKFNWYVDGVEVHNAKTKPREEQYNSTYRVVSVLTVLHQDWLNGKEYKCKVSNKALAAPIEKTISKAKGQPREPQVYTLPPSRDELTKNQVSLTCLVKGFYPSDIAVEWESNGQPENNYKTTPPVLDSDGSFFLYSKLTVDKSRWQQGNVFSCSVLHEALHSHYTQKSLSLSPGKGGSDSYQEEVIKLCGRELVRAQIAICGKSTASDAAGAEAEAGARQLYSALANKCCHVGCTKRSLAQFC
- Potency (cAMP, transient hRXFP1 in HEK293) (human RXFP1 [1]): 4.9 nM

B9: SEQ ID NO: 134 (Fc fusion)
chain: DKTHTCPPCPAPEAAGGPSVFLFPPKPKDTLMISRTPEVTCVVVDVSHEDPEVKFNWYVDGVEVHNAKTKPREEQYNSTYRVVSVLTVLHQDWLNGKEYKCKVSNKALAAPIEKTISKAKGQPREPQVYTLPPSRDELTKNQVSLTCLVKGFYPSDIAVEWESNGQPENNYKTTPPVLDSDGSFFLYSKLTVDKSRWQQGNVFSCSVLHEALHSHYTQKSLSLSPGKGGSDSYQEEVIKLCGRELVRAQIAICGKSTASDAAGAEAEAGARQLYSALANKCCKVGCTKQSLAQFC
- Potency (cAMP, transient hRXFP1 in HEK293) (human RXFP1 [1]): 21.6 nM

B10: SEQ ID NO: 135 (Fc fusion)
chain: DKTHTCPPCPAPEAAGGPSVFLFPPKPKDTLMISRTPEVTCVVVDVSHEDPEVKFNWYVDGVEVHNAKTKPREEQYNSTYRVVSVLTVLHQDWLNGKEYKCKVSNKALAAPIEKTISKAKGQPREPQVYTLPPSRDELTKNQVSLTCLVKGFYPSDIAVEWESNGQPENNYKTTPPVLDSDGSFFLYSKLTVDKSRWQQGNVFSCSVLHEALHSHYTQKSLSLSPGKGGSDSYQEEVIKLCGRELVRAQIAICGKSTGGEGSGGEGEGGGRQLYSALANKCCYVGCTKQSLAQFC
- Potency (cAMP, transient hRXFP1 in HEK293) (human RXFP1 [1]): 29.5 nM

B11: SEQ ID NO: 120 (Fc fusion)
chain: DKTHTCPPCPAPEAAGGPSVFLFPPKPKDTLMISRTPEVTCVVVDVSHEDPEVKFNWYVDGVEVHNAKTKPREEQYNSTYRVVSVLTVLHQDWLNGKEYKCKVSNKALAAPIEKTISKAKGQPREPQVYTLPPSRDELTKNQVSLTCLVKGFYPSDIAVEWESNGQPENNYKTTPPVLDSDGSFFLYSKLTVDKSRWQQGNVFSCSVLHEALHSHYTQKSLSLSPGKGGSDSFQEEVIKLCGRELVRAQIAICGKSTASDAAGAEAEAGARQLYSALANKCCHVGCTKRSLAQFC
- Potency (cAMP, transient hRXFP1 in HEK293) (human RXFP1 [1]): 4.8 nM

B12: SEQ ID NO: 124 (Fc fusion)
chain: DKTHTCPPCPAPEAAGGPSVFLFPPKPKDTLMISRTPEVTCVVVDVSHEDPEVKFNWYVDGVEVHNAKTKPREEQYNSTYRVVSVLTVLHQDWLNGKEYKCKVSNKALAAPIEKTISKAKGQPREPQVYTLPPSRDELTKNQVSLTCLVKGFYPSDIAVEWESNGQPENNYKTTPPVLDSDGSFFLYSKLTVDKSRWQQGNVFSCSVLHEALHSHYTQKSLSLSPGKGGSDSWQEEVIKLCGRELVRAQIAICGKSTASDAAGAEAEAGARQLYSALANKCCLVGCTKRSLAQFC
- Potency (cAMP, transient hRXFP1 in HEK293) (human RXFP1 [1]): 20.8 nM

B13: SEQ ID NO: 136 (Fc fusion)
chain: DKTHTCPPCPAPEAAGGPSVFLFPPKPKDTLMISRTPEVTCVVVDVSHEDPEVKFNWYVDGVEVHNAKTKPREEQYNSTYRVVSVLTVLHQDWLNGKEYKCKVSNKALAAPIEKTISKAKGQPREPQVYTLPPSRDELTKNQVSLTCLVKGFYPSDIAVEWESNGQPENNYKTTPPVLDSDGSFFLYSKLTVDKSRWQQGNVFSCSVLHEALHSHYTQKSLSLSPGKGGSDSYQEEVIKLCGRELVRAQIAICGKSTGGEGSGGEGEGGGRQLYSALANKCCKVGCTKQSLAQFC
- Potency (cAMP, transient hRXFP1 in HEK293) (human RXFP1 [1]): 17.6 nM

B14: SEQ ID NO: 367 (Fc fusion)
chain: DKTHTCPPCPAPEAAGGPSVFLFPPKPKDTLMISRTPEVTCVVVDVSHEDPEVKFNWYVDGVEVHNAKTKPREEQYNSTYRVVSVLTVLHQDWLNGKEYKCKVSNKALAAPIEKTISKAKGQPREPQVYTLPPSRDELTKNQVSLTCLVKGFYPSDIAVEWESNGQPENNYKTTPPVLDSDGSFFLYSKLTVDKSRWQQGNVFSCSVLHEALHSHYTQKSLSLSPGGGSDSWMEEVIKLCGRELVRAQIAICGKSTGGEGGGEEGGGEGGQLYSALANKCCHVGCTKRSLARFC
- Potency (cAMP, transient hRXFP1 in HEK293) (human RXFP1 [2]): 140 nM
- Transient HEK293 hRXFP1 cAMP EC50 (human RXFP1 [3]): ~150 nM

B15: SEQ ID NO: 138 (Fc fusion)
chain: DKTHTCPPCPAPEAAGGPSVFLFPPKPKDTLMISRTPEVTCVVVDVSHEDPEVKFNWYVDGVEVHNAKTKPREEQYNSTYRVVSVLTVLHQDWLNGKEYKCKVSNKALAAPIEKTISKAKGQPREPQVYTLPPSRDELTKNQVSLTCLVKGFYPSDIAVEWESNGQPENNYKTTPPVLDSDGSFFLYSKLTVDKSRWQQGNVFSCSVLHEALHSHYTQKSLSLSPGKGGSDSYQEEVIKLCGRELVRAQIAICGKSTGGEGSGGEGSGGGRQLYSALANKCCKVGCTKQSLAQFC
- Potency (cAMP, transient hRXFP1 in HEK293) (human RXFP1 [1]): 7.5 nM
